According to US20030148445A1 (NATIONAL JEWISH MEDICAL AND RESEARCH CENTER, published 2003):

T1: TRADD (UniProt Q15628 1-312, limits assumed)
T1 sequence (looked up): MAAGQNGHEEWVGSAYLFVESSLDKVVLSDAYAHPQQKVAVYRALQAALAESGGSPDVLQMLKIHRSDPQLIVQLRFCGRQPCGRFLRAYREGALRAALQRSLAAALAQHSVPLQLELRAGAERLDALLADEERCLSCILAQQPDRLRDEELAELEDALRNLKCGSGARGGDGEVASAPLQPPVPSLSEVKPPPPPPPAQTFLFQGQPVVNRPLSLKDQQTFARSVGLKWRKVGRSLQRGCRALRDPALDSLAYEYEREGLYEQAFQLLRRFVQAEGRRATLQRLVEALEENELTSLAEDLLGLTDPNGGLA

T2: RIP (UniProt Q13546 1-671, limits assumed)
T2 sequence (looked up): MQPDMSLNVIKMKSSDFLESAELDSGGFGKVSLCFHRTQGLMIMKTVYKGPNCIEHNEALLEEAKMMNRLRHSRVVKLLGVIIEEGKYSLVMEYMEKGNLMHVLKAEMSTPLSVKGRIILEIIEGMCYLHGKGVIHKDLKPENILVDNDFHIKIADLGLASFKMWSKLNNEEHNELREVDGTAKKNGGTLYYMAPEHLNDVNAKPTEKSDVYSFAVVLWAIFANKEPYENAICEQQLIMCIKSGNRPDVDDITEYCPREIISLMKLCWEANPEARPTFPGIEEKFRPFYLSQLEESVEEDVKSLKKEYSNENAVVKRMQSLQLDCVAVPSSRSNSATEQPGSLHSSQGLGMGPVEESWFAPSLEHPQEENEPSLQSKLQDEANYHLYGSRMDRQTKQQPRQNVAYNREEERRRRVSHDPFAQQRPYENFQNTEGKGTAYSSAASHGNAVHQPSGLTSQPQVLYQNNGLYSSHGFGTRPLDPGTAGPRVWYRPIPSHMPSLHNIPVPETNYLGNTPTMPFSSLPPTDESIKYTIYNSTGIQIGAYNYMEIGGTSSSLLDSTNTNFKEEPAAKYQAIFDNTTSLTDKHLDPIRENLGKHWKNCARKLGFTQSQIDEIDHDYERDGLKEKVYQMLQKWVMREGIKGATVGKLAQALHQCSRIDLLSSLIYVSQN

T3: TRAF2 (UniProt Q12933 1-501, limits assumed)
T3 sequence (looked up): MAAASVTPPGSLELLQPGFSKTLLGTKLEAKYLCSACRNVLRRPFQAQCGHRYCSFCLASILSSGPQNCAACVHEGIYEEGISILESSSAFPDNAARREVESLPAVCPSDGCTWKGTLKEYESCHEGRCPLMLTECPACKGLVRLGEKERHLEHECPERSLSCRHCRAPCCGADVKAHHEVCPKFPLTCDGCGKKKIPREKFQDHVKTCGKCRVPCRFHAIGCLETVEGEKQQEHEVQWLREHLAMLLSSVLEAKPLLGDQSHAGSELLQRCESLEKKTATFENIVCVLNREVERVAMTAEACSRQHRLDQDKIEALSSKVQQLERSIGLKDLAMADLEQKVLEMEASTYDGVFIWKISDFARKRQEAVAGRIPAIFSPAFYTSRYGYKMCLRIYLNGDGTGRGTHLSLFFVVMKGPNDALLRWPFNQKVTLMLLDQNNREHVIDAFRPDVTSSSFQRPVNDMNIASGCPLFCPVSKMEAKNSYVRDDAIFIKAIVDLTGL


Key:
[1] = target: T4, Flag-tagged soluble TRAIL (Flag-sTRAIL) (UniProt P50591 95-281, limits assumed); assay: co-immunoprecipitation with anti-HA antibody, Western blot with anti-Flag antibody
T4 construct: not shown: Flag tag
Description: (§1) 24 hours after transfection, cells were lysed in 1.0 ml lysis buffer (20 mM Tris [pH 7.5], 150 mM NaCl, 1% Triton, 1 mM EDTA, 10 μg/ml aprotinin, 10 μg/ml leupeptin, 1 mM PMSF). […] The mixtures were split into 2 aliquots and each aliquot was incubated with 0.5 μg anti-HA monoclonal antibody (BABCO, Berkeley, Calif.) (FIG. 6A; lanes 2,4,6,8) or control mouse IgG (FIG. 6A; lanes 1, 3, 5, 7), and 25 μl of a 1:1 slurry of GammaBind G Plus Sepharose at 4° C. for 3 hours. The sepharose beads were washed three times with 1 ml lysis buffer containing 500 mM NaCl. The precipitates were analyzed by Western blot with anti-Flag antibody (FIG. 6A; upper panel). […] All conditioned medium was supplemented with 10 mM Tris (pH 7.5), 100 mM NaCl, 1 mM EDTA, 10 μg/ml aprotinin, 10 μg/ml leupeptin, and 1 mM PMSF before TH immunoprecipitation experiments. Western blots were performed as described above.

[2] = target: T5, Flag-tagged sTALL-1 (Flag-sTALL-1) (human, UniProt Q9Y275 134-285); assay: as above
T5 construct: Secreted from 293 cells transfected with pSec-Flag-sTALL-1; used as conditioned medium or purified on an anti-Flag column; also called soluble TALL-1
Description: as §1

TRADD = target: T1, TRADD; assay: co-immunoprecipitation from transfected 293 cell lysates with anti-Flag antibody, Western blot with anti-HA antibody
Description: (§2) In the second portion of the experiment (See FIG. 10B), 293 cells were transfected with expression plasmids for HA-BCMA and the plasmids indicated in FIG. 10B. Transfected cell lysates were immunoprecipitated with anti-Flag antibody or control IgG. The immunoprecipitates were analyzed by Western blot with anti-HA antibody (FIG. 10B; upper panel).

RIP = target: T2, RIP; assay: as above
Description: as §2

TRAF2 = target: T3, TRAF2; assay: as above
Description: as §2

[3] = target: T5, Flag-tagged sTALL-1 (Flag-sTALL-1); assay: competition in flow cytometry on Bjab cells
Description: As described in Examples 2 and 3, cell staining was performed by sequential incubation (each 40 minutes) with anti-Flag monoclonal antibody (1 μg/ml) and RPE-conjugated goat anti-mouse IgG (1:200 dilution) in staining buffer (D-PBS containing 2% fetal bovine serum). Cells were washed two times with staining buffer following each incubation.

T4 sequence (P50591 95-281 limits assumed): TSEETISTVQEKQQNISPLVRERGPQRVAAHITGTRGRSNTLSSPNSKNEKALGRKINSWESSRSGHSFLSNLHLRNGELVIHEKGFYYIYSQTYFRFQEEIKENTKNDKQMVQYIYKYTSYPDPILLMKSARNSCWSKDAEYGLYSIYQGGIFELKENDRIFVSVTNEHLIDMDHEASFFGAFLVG

| binding result [2] | binding result (TRADD) | binding result (RIP) | binding result (TRAF2) | binding result [3] | Binder | binding result [1] |
| --- | --- | --- | --- | --- | --- | --- |
| binds | no binding | no binding | no binding | – | C-terminal HA epitope-tagged BCMA (BCMA-HA) (receptor, not shown: small tags and cut ends, also called HA-BCMA; B Cell Maturation Protein) MLQMAGQCSQNEYFDSLLHACIPCQLRCSSNTPPLTCQRYCNASVTNSVKGTNAILWTCLGLSLIISLAVFVLMFLLRKISSEPLKDEFKNTGSGLLGMANIDLEKSRTGDEIILPRGLEYTVEECTCEDCIKSKPKVDSDHCFPLPAMEEGATILVTTKTNDYCKSLPAALSATEIEKSISAR | no binding (tested: 0.1 µg recombinant Flag-sTRAIL) |
| – | – | – | – | binds | Flag-sBCMA-Fc secreted fusion protein (Fc fusion, Used as 50-fold concentrated conditioned medium of transfected 293 cells; also called soluble BCMA; not shown: N-terminal Flag tag; Fc fragment of immunoglobulin G1 (IgG1), from the pCMV1-Flag-Fc plasmid) MLQMAGQCSQNEYFDSLLHACIPCQLRCSSNTPPLTCQRYCNASVTNSVKGTNAILWTCLGL | – |
